Laboratory results as given in publication PMC7933679.

Target: Deinococcus radiodurans MazF (MazF-dr) (Deinococcus radiodurans)
Assay: crystal structure; apo MazF-dr with N-terminal 6x His-tag, 5 mg/mL, sitting-drop vapor diffusion at 293 K; 0.2 M ammonium sulfate, 0.1 M Bis-Tris pH 5.5, 25% w/v PEG 3350; space group P4(3)2(1)2, dimer in the asymmetric unit; 1.3 Å

stoichiometry N: 2
Substance: Deinococcus radiodurans MazF (MazF-dr) (enzyme)
